Assay results from article PMC2779222 (The Journal of Cell Biology, 2009).

Key:
ΔN–CEACAM1-3L–YFP (rat) = ΔN–CEACAM1-3L–YFP (rat) (UniProt P16573); assay: cross-linking
cross-linking = target: the molecule itself; assay: cross-linking

Sequence of ΔN–CEACAM1-3L–YFP (P16573 35-519, stated change not applied): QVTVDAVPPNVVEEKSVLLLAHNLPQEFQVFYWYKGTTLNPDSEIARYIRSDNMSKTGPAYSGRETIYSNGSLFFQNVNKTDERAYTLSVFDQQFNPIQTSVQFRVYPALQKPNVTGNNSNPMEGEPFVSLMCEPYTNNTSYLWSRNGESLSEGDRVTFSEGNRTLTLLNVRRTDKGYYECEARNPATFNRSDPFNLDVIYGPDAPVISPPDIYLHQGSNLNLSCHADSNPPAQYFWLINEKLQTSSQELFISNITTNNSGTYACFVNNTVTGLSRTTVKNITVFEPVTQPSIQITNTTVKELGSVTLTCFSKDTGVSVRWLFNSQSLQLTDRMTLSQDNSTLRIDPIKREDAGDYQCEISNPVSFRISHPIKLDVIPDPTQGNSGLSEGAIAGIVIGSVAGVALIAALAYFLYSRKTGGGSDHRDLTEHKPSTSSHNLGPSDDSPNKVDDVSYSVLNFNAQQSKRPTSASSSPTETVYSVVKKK

| stoichiometry N (ΔN–CEACAM1-3L–YFP (rat)) | Molecule | stoichiometry N (cross-linking) |
| --- | --- | --- |
| 2 | ΔN–CEACAM1-3L–YFP (from UniProt P16573 35-519) (domain or fragment) | – |
| – | CEACAM1-4ΔCyto–YFP (domain or fragment, rat, UniProt P16573 35-448, looked up) QVTVDAVPPNVVEEKSVLLLAHNLPQEFQVFYWYKGTTLNPDSEIARYIRSDNMSKTGPAYSGRETIYSNGSLFFQNVNKTDERAYTLSVFDQQFNPIQTSVQFRVYPALQKPNVTGNNSNPMEGEPFVSLMCEPYTNNTSYLWSRNGESLSEGDRVTFSEGNRTLTLLNVRRTDKGYYECEARNPATFNRSDPFNLDVIYGPDAPVISPPDIYLHQGSNLNLSCHADSNPPAQYFWLINEKLQTSSQELFISNITTNNSGTYACFVNNTVTGLSRTTVKNITVFEPVTQPSIQITNTTVKELGSVTLTCFSKDTGVSVRWLFNSQSLQLTDRMTLSQDNSTLRIDPIKREDAGDYQCEISNPVSFRISHPIKLDVIPDPTQGNSGLSEGAIAGIVIGSVAGVALIAALAYFLY | 2 |
